Results reported in patent publication US20090087417A1, “METHODS FOR PROMOTING DOPAMINERGIC NEURONAL DEVELOPMENT BY USING NG4A-SUBFAMILY AND WNT-LIGANDS” (priority 2002, published 2009).

Tests used:
[1] = tested on: VM precursor cultures / Nurr1+ precursor cells; assay: BrdU incorporation (proliferation) in VM precursor cultures; type: cell-based, rat; settings: for BrdU incorporation in VM precursor cultures: 3 days in vitro; for increase in Nurr1 and BrdU double positive precursor cells (mitosis in Nurr1+ population): 1 day in vitro
Procedure: (§1) Ventral mesencephala and cerebral cortices from embryos E13.5-14.5 obtained from timed-mated Sprague-Dawley rats were dissected, mechanically dissociated and plated at a final density of 1×10^5 cells/cm2 on poly-D-lysine coated 12- or 24-well plates in a defined, serum-free medium (N2, consisting of a 1:1 mixture of F12 and DMEM containing insulin (10 ng/ml), transferrin (100 μg/ml), putrescine (100 μM), progesterone (20 nM), selenium (30 nM), glucose (6 mg/ml), and bovine serum albumin (1 mg/ml)). Purified Type 1 astrocytes were obtained from mixed glial cultures derived from the VM or CTX of P1 rats according to a standard protocol (Wagner et al., 1999). After shaking and replating into 12-well plates, astrocytes were grown to confluency in 15% fetal bovine serum-containing media and changed to N2 medium, at which time freshly dissected VM or CTX cells were plated on top of the astrocytes at a density of 1×10^5 cells/cm2. All factors were added once, at the initiation of culture, with the exception of 5-bromodeoxyuridine (BrdU), which was added 4-6 hours prior to fixation. Cultures were maintained in a humidified 5% CO2, 95% air incubator at 37° C. and fixed after given time periods with 4% paraformaldehyde for 45 minutes prior to immunocytochemical analysis.
Fixed cultures were incubated with one of the following antibodies, diluted appropriately in phosphate-buffered saline (PBS) containing 1% bovine serum albumin and 0.3% Triton-X 100: mouse anti-BrdU, 1:50 (DAKO, Denmark), mouse anti-β-tubulin, Type III (TuJ1), 1:250 (Sigma), mouse anti-TH, 1:1000 (Incstar, USA), rabbit anti-TH, 1:250 (PelFreeze); rabbit anti-Nurr1, 1:2000 (gift from Dr. T. Perlmann, Sweden), rabbit anti-Nurr1, 1:1000 (Santa Cruz, USA) or mouse anti-Nurr1, 1:250 (BD Transduction Laboratories, USA), rabbit anti Adh2 1:4000 (gift from Dr. R. Lindahl, South Carolina). Incubations were either carried out at 4° C. overnight, or at room temperature for 1 hour. Both processes yielded similar results. After washing, cultures were incubated for 1-3 hr with appropriate secondary antibodies (biotinylated 1:500; CY2-, FITC-, or rhodamine-coupled horse-anti-mouse IgG 1:100; or goat-anti-rabbit IgG 1:100; all from Vector, USA), in the same dilution buffer. Brightfield immunostaining was visualized with the Vector Laboratory ABC immunoperoxidase kit, using either NovaRed (red), or AEC (red), SG or 3-3′ dimaminobenzidine tetrahydrochloride (DAB 0.5 mg/ml)/nickel chloride (1.6 mg/ml) (gray/black), or VIP (violet) substrates. Double-staining was performed by sequential single staining as described. The order of staining was only critical for BrdU-double labeling, in which case the BrdU procedure was always performed second. […] Photos were acquired with a Zeiss Axioplan 100M microscope and collected with a Hamamatsu camera C4742-95 (with the QED imaging software).
Only clearly stained cells were counted as positive cells. Spheres were considered positive if they contained one or more positive cell. Quantitative immunocytochemical data on individual cells represent means and standard errors of counts obtained by a blinded observer from 10-20 non-overlapping fields (cells) or in the entire well (clusters), in each of 3-4 wells per condition from 3-4 independent experiments, unless stated otherwise. For each variable, initial statistical comparisons were performed by a global ANOVA, with multiple factors of dose, time point, treatment and/or region; if significant interactions between treatment and any other variable existed, data were further divided into separate times, doses or regions. Fisher's protected least significant difference was used post hoc to identify specific points at which the treatments differed from controls (or each other) only when significant interactions between factor treatment and other variables occurred. Significance for all tests was assumed at the level of p<0.05. […]

[2] = tested on: E14.5 ventral mesencephalic precursor cultures; assay: Number of TH+ neurons in E14.5 ventral mesencephalic precursor cultures; type: cell-based, rat; settings: for increase in TH+ neurons: partially purified Wnts, compared to controls (FIG. 10A); for effects on TH+ cell numbers, time course: 10 units, 1, 3 and 7 days in vitro; for increases in TH+ cell numbers compared with GDNF, FGF-2 or FGF-8 / increases in TH+ cell numbers compared with VM T1A conditioned medium: after 3 days; for TH+ cell numbers: increasing concentrations of partially purified Wnt, 3 days
Procedure: as §1
B1A fibroblast lines stably overexpressing hemagglutanin-tagged Wnt-1a, 3a, or 5a (Shimizu H., 1997) were grown in standard complete media (DMEM+10% FBS) supplemented with 100 ug/ml G-418. For collection of conditioned media, cells were replated at low density in complete media and allowed to reach 50-75% confluency, at which point cells were washed and media was replaced with serum-free N2 (with 10 μM sodium butyrate) for 24 hours. Conditioned media from sister flasks was then harvested, pooled as lots and stored at −80° C. for up to 2 months. When compared to fresh CM, no loss of activity was observed when using this collection and storage routine. T1A CM was harvested using a similar procedure, with the exception that media was collected after 3 days in vitro.
For concentration, individual lots of CM were thawed at room temperature, divided into 80 ml aliquots, loaded onto Centricon-Plus 80 columns (Millipore) and concentrated via centrifugation according to the manufacturers instructions. Following concentration, aliquots were re-pooled and frozen at −80 C after a sample was taken for determination of protein content and Western blot analysis. In brief, 20 ug of protein was loaded onto a 10% polyacrylamide mini-gel and run under denaturing conditions at 150 V for approximately 30 minutes. After dry electroblot transfer onto PVDF membranes (Hybond P, Amersham Pharmacia Biotech, Upsalla, Sweden) and pre-incubation for 30 minutes in a blocking buffer consisting of 3% bovine serum albumin in Tris-Buffered Saline with […] Triton-X 100 (TBST), blots were incubated with mouse anti-hemagglutinin (Babco) diluted 1:1000 in TBST overnight at 4 C. After washing, blots were incubated with alkaline phosphatase-coupled goat anti-mouse IgG (Santa Cruz) diluted 1:1000 in TBST for 1 hour at room temperature. Blots were visualized using the Amersham ECF reagent and blue fluorescence quantitated using a Molecular Devices Storm 840 phosphoimager.
B1A fibroblast lines were cotransfected with the mFz8CRD-IgG/pRK5 and the pIRES puro 2 (Clontech, BD Bioscience, Erembodegem, Belgium) plasmids, using Lipofectamine Plus reagent (Invitrogen, Lidingo, Sweden) according to the instruction of the manufacturer. Upon selection for puromycin resistance (1 μg/ml Sigma, Stockholm, Sweden), clones were isolated and expanded. A clone overexpressing Fz8CRD 700× (real time RT-PCR analysis) was identified. Harvesting and partial purification of Fz8CRD conditioned media were performed as described previously. In all the blocking experiments performed, the Fz8CRD and B1A control partial purified conditioned medias were used at a final concentration of 125-250 μg/ml. […]

Molecule	BrdU incorporation in VM precursor cultures [1]	increase in TH+ neurons [2]	increase in Nurr1 and BrdU double positive precursor cells (mitosis in Nurr1+ population) [1]	effects on TH+ cell numbers, time course [2]	increases in TH+ cell numbers compared with GDNF, FGF-2 or FGF-8 [2]	increases in TH+ cell numbers compared with VM T1A conditioned medium [2]	TH+ cell numbers [2]
Wnt-2: Partially purified / conditioned media from Wnt-2 overexpressing fibroblast cell line (protein, UniProt P21552 26-360, looked up, conditioned medium, Partially purified / conditioned media from Wnt-2 overexpressing fibroblast cell line) Protein Wnt-2: SWWYMRATGGSSRVMCDNVPGLVSRQRQLCHRHPDVMRAIGLGVAEWTAECQHQFRQHRWNCNTLDRDHSLFGRVLLRSSRESAFVYAISSAGVVFAITRACSQGELKSCSCDPKKKGSAKDSKGTFDWGGCSDNIDYGIKFARAFVDAKERKGKDARALMNLHNNRAGRKAVKRFLKQECKCHGVSGSCTLRTCWLAMADFRKTGDYLWRKYNGAIQVVMNQDGTGFTVANKRFKKPTKNDLVYFENSPDYCIRDREAGSLGTAGRVCNLTSRGMDSCEVMCCGRGYDTSHVTRMTKCECKFHWCCAVRCQDCLEALDVHTCKAPKSADWATPT	slight decrease	~2 fold					
Wnt-7a: Partially purified / conditioned media from Wnt-7a overexpressing fibroblast cell line (protein, UniProt P24383 32-349, looked up, conditioned medium, Partially purified / conditioned media from Wnt-7a overexpressing fibroblast cell line) Protein Wnt-7a: LGASIICNKIPGLAPRQRAICQSRPDAIIVIGEGSQMGLDECQFQFRNGRWNCSALGERTVFGKELKVGSREAAFTYAIIAAGVAHAITAACTQGNLSDCGCDKEKQGQYHRDEGWKWGGCSADIRYGIGFAKVFVDAREIKQNARTLMNLHNNEAGRKILEENMKLECKCHGVSGSCTTKTCWTTLPQFRELGYVLKDKYNEAVHVEPVRASRNKRPTFLKIKKPLSYRKPMDTDLVYIEKSPNYCEEDPVTGSVGTQGRACNKTAPQASGCDLMCCGRGYNTHQYARVWQCNCKFHWCCYVKCNTCSERTEMYTCK	BrdU+ increases similar to that of Wnt-1	modest TH+ increases					
Wnt-1: Partially purified conditioned media from stable fibroblast cell line engineered to secrete Wnt-1 ligand (protein, left off: small tags and cut ends) ANSSGRWWGIVNIASSTNLLTDSKSLQLVLEPSLQLLSRKQRRLIRQNPGILHSVSGGLQSAVRECKWQFRNRRWNCPTAPGPHLFGKIVNRGCRETAFIFAITSAGVTHSVARSCSEGSIESCTCDYRRRGPGGPDWHWGGCSDNIDFGRLFGREFVDSGEKGRDLRFLMNLHNNEAGRTTVFSEMRQECKCHGMSGSCTVRTCWMRLPTLRAVGDVLRDRFDGASRVLYGNRGSNRASRAELLRLEPEDPAHKPPSPHDLVYFEKSPNFCTYSGRLGTAGTAGRACNSSSPALDGCELLCCGRGHRTRTQRVTERCNCTFHWCCHVSCRNCTHTRVLHECL	increased		3 fold	detected as early as after 1 day in vitro	exceeded increases produced by known dopaminotrophic molecules	roughly equaled	robust dose-response increases
Wnt-5a: Partially purified conditioned media from stable fibroblast cell line engineered to secrete Wnt-5a ligand (protein, left off: small tags and cut ends) IIGAQPLCSQLAGLSQGQKKLCHLYQDHMQYIGEGAKTGIKECQYQFRHRRWNCSTVDNTSVFGRVMQIGSRETAFTYAVSAAGVVNAMSRACREGELSTCGCSRAARPKDLPRDWLWGGCGDNIDYGYRFAKEFVDARERERIHAKGSYESARILMNLHNNEAGRRTVYNLADVACKCHGVSGSCSLKTCWLQLADFRKVGDALKEKYDSAAAMRLNSRGKLVQVNSRFNSPTTQDLVYIDPSPDYCVRNESTGSLGTQGRLCNKTSEGMDGCELMCCGRGYDQFKTVQTERCHCKFHWCCYVKCKKCTEIVDQFVCK	not		two	detected as early as after 1 day in vitro	exceeded increases produced by known dopaminotrophic molecules	roughly equaled	robust dose-response increases
